Results reported in patent publication US20230295345A1 (published 2023).

T1: matriptase (ST14) over-expressed in HEK293T cells (human, UniProt Q9Y5Y6 1-855)
T1 construct: also called matriptase-1
T1 sequence: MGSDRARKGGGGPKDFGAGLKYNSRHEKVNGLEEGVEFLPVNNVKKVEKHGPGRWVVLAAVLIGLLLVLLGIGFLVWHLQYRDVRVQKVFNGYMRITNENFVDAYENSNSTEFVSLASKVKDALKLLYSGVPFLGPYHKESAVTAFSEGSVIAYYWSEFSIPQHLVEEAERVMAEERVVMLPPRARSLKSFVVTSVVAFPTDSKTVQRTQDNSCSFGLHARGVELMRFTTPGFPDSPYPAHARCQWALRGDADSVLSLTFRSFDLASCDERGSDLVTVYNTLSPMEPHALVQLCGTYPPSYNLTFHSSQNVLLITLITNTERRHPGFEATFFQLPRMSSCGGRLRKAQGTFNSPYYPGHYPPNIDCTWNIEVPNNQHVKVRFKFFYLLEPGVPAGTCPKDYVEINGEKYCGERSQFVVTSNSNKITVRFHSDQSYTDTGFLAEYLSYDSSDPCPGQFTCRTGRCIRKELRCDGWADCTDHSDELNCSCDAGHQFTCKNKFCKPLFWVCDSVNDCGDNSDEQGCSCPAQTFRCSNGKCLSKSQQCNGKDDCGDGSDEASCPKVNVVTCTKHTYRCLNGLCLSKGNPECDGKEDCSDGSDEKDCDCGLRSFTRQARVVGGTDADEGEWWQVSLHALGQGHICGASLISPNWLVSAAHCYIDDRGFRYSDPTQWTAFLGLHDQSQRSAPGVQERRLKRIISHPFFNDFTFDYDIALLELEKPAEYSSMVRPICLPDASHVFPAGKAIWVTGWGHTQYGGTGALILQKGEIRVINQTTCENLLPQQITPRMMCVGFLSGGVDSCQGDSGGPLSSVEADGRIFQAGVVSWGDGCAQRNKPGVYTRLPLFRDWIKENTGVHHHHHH

T2: cynomolgus monkey TMPRSS6 expressed on HEK293T cells (CynoTMPRSS6-(His)6) (cynomolgus monkey, UniProt Q8IU80 10-811 (human entry))
T2 chain: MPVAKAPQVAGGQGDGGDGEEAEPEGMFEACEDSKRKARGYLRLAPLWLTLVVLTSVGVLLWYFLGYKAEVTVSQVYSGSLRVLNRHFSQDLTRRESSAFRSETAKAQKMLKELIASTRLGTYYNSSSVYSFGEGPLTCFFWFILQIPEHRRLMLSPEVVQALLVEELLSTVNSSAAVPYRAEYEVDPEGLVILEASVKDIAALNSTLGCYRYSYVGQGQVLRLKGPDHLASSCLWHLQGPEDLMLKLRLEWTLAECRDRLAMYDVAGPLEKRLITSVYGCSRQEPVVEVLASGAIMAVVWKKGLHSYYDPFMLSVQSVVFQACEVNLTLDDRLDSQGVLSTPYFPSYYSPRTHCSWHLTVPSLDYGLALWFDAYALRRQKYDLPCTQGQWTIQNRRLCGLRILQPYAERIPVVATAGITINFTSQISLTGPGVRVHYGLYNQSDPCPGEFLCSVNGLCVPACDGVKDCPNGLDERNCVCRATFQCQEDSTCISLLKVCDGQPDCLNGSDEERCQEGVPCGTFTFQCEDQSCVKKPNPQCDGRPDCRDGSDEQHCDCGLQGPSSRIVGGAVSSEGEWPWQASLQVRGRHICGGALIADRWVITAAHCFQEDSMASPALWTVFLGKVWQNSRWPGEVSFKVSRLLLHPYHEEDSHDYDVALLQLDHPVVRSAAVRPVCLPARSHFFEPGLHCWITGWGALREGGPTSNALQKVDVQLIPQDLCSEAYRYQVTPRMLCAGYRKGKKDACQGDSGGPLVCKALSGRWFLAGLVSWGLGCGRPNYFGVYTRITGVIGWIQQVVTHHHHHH


Assays:
[1] = target: T1, matriptase (ST14) over-expressed in …; experiment: FACS on permeabilized HEK293T cells over-expressing ST14
Description: To determine if anti-TMPRSS6 antibodies bind to homologous matriptases, HEK293T cells over-expressing matriptase (ST14) (SEQ ID NO: 100) (FIGS. 5B, 5E, 5H, 5K, 5N, 5Q), and HEK293T cells over-expressing matriptase-3 (TMPRSS7) (SEQ ID NO: 101) (FIGS. 5C, 5F, 5I, 5L, 5O, 5R) were collected (generated in house). HEK293T cells stably expressing human TMPRSS6 (matriptase-2) (SEQ ID NO:97) (generated by LakePharma Inc as described above, FIGS. 5A, 5D, 5G, 5J, 5M, 5P) were used as a positive control and HEK293T cells (FIGS. 5A-5R) were used as a negative control (as described above). Cells were blocked and permeabilized with dPBS + 3% BSA + 0.1% Tween-20 before incubation with various anti-TMPRSS6 antibodies diluted in dPBS + 3% BSA + 0.1% Tween-20. Cells were incubated with anti-TMPRSS6 antibodies and their humanized variants at a concentration of roughly 1 µg/ml for 1 hr. After incubation, cells were washed with dPBS and incubated with goat anti-mouse IgG conjugated with AlexaFluor-488 (Invitrogen, FIGS. 5A-5I) or goat anti-human IgG conjugated with Allophycocyanin (APC) (Jackson Immuno Research, FIGS. 5J-5R) as a 2° antibody. At last, cells were washed with dPBS and re-suspended with dPBS + 1 mM EDTA, and then subjected to FACS analysis using a NOVOCYTE® Flow Cytometer. Bound antibody was determined by excitation at 488 nm and measurement of emission (FITC-A) at 530 nm (FIGS. 5A-5I) or by excitation at 640 nm and measurement of emission (APC-A) at 675 nm (FIGS. 5J-5R). Results for these assays are shown in histogram plots in FIGS. 5A-5R.

[2] = target: T2, cynomolgus monkey TMPRSS6 expressed on …; experiment: cell surface ELISA on fixed HEK293T cells expressing cynomolgus monkey TMPRSS6
Experimental: HEK293T cells stably expressing mouse TMPRSS6 (generated by LakePharma Inc as described above, FIGS. 4J, 4L, 4N, 4P, 4R, 4T) or cynomolgus monkey (generated in house as described above, FIGS. 4K, 4M, 4O, 4Q, 4S, 4U) were fixed with methanol (100%), and washed with dPBS (Dulbecco’s phosphate-buffered saline, Corning Cellgro) before incubation with various concentrations of anti-TMPRSS6 antibodies and their humanized variants diluted in BSA medium (DMEM + 1% Pen/Strep + 10 mM HEPES + 1 mg/ml BSA (Sigma-Aldrich)). Purified mouse IgG (FIGS. 4J-4O) or Human IgG1 (FIGS. 4P-4U) was used as a control. After incubation, cells were washed with BSA medium and then incubated with goat anti-mouse (Invitrogen, FIGS. 4J-4O) or anti-human (Millipore, FIGS. 4P-4U) IgG conjugated with HRP as a 2° antibody. Finally, cells were washed with dPBS to remove unbound antibody and color developed with ELISA liquid substrate (Sigma-Aldrich), followed by stopping the reaction with addition of the same volume of ELISA liquid substrate of 1 M H₂SO₄. Bound antibody was measured by absorbance at OD₄₅₀ₙₘ.

| Binder | binding result [1] | binding result [2] |
| --- | --- | --- |
| MWTx-001 anti-TMPRSS6 antibody (antibody, mouse IgG2a, kappa, V domains shown, Mouse monoclonal antibody from a hybridoma (ATCC PTA-126759)) VH: QVQLQQPGAELAKPGASVKMSCKASGYTFTSYWITWVKQRPGQDLEWIGNIYPGSGSTYYNEKFKSKATLTVDTSSRTAYMQLSSLTSADSAVYYCAPYDSDYAMDYWGQGTSVTVSS VL: DIKMTQSPSSMYASLGERVTITCKASQDINNYLSWFQQKPGKSPKTLIYRANRLVDGVPSRVSGSGSGQDYSLTISSLEYEDVGIYFCLQYDEFPLTFGAGTKLELKR | no binding (tested: roughly 1 µg/ml) | binds |
| MWTx-002 anti-TMPRSS6 antibody (antibody, mouse IgG2b, kappa, V domains shown, Mouse monoclonal antibody from a hybridoma (ATCC PTA-126760)) VH: EVQLQQSGAELVKPGASVKLSCTASGFNIKDYYIHWVKERTEQGLEWFGRIDPEDGESEYAPKFQGKATLTADTSSNTAYLQLSSLTSEDTAVYYCTRGDSMMVTYFDYWGQGTTLTVSS VL: DIVMTQSHKFMSTSVGDRVSITCKASQDVSTAVAWYQQKPGQSPKLLIYWAFTRHTGVPDRFTSTGSGTDYALTISSVQAEDLALYYCQQHYRSPWTFGGGTKLEIKR | no binding (tested: roughly 1 µg/ml) | binds |
| hzMWTx-003Var anti-TMPRSS6 antibody (antibody, human IgG1, kappa, L234A L235A, V domains shown, Humanized variant of MWTx-003, human IgG1/kappa) VH: QVQLVQSGAEVKKPGASVKVSCKASGFNIEDYYMHWVRQAPGQRLEWMGRIDPEDAETTYSPKFQGRVTIIPDTSANTAYMELSSLRSEDTAVYYCARSIYLDPMDYWGQGTLVTVSS VL: DIQMTQSPKSLSASVGDRVTITCRASQDVTTALAWYQQKPGQSPKLLIYWATTRHSGVPSRFSGSGSGTDFTLTISSLQPEDFATYYCQQHYSTPYTFGQGTKLEIKR | no binding (tested: roughly 1 µg/ml) | binds |
| hzMWTx-001Var anti-TMPRSS6 antibody (antibody, human IgG1, kappa, N297A, V domains shown, Humanized variant of MWTx-001, human IgG1/kappa) VH: EVQLVQSGAEVKKPGASVKVSCKASGYTFTSYWITWVRQAPGQRLEWIGNIYPGSGSTYYNEKFKSKATITRDTSSRTAYMELSSLRSEDTAVYYCAPYDADYAMDYWGQGTLVTVSS VL: DIQMTQSPSSLSASVGDRVTITCKASQDISNYLSWFQQKPGKAPKLLIYRANRLVEGVPSRFSGSGSGTDFTLTISSLQPEDFATYFCLQYDEFPLTFGGGTKVEIKR | no binding (tested: roughly 1 µg/ml) | binds |

Second part, the binder after the results:

| binding result [1] | binding result [2] | Binder |
| --- | --- | --- |
| no binding (tested: roughly 1 µg/ml) |  | MWTx-003 anti-TMPRSS6 antibody (antibody, mouse IgG2b, kappa, V domains shown, Mouse monoclonal antibody from a hybridoma (ATCC PTA-126761); also called r4K12B (recombinantly expressed version, same HC and LC)) VH: EVQLQQSGAELVKPGASVKLSCTASGFNIEDYYIHWVKERTEQGLEWIGRIDPEDGETTYAPQFQGKATIIPDTSSNTAYMQLSSLTSEDAAVYYCARSIYLDPMDYWGQGTSVTVSS VL: DIVMTQSHKFMSTSVGDRVSITCKASQDVTTAVAWYQQKPGQSPKILIYWATTRHTGVPDRFTGSISGTTYILTISSVQAEDLALYYCQQHYSTPYTFGGGTKLEIKR |
| no binding (tested: roughly 1 µg/ml) | binds | hzMWTx-002Var anti-TMPRSS6 antibody (antibody, human IgG1, kappa, N297A, V domains shown, Humanized variant of MWTx-002, human IgG1/kappa) VH: EVQLVQSGAEVKKPGASVKVSCKASGFNIKDYYIHWVRQATGQGLEWMGRIDPEDAESEYAPKFQGRVTITADTSTDTAYMELSSLRSEDTAVYYCTRGDSMMVTYFDYWGQGTLVTVSS VL: DIQMTQSPSSLSASVGDRVTITCKASQDVSTAVAWYQQKPGKAPKLLIYWAFTRHTGVPSRFSGSGSGTDYALTISSLQPEDFATYYCQQHYRSPWTFGGGTKVEIKR |
